In the assay the target is T1, human ribonucleotide reductase small subunit β′ (p53R2) (human, UniProt Q7LG56 1-351).
T1 sequence (looked up): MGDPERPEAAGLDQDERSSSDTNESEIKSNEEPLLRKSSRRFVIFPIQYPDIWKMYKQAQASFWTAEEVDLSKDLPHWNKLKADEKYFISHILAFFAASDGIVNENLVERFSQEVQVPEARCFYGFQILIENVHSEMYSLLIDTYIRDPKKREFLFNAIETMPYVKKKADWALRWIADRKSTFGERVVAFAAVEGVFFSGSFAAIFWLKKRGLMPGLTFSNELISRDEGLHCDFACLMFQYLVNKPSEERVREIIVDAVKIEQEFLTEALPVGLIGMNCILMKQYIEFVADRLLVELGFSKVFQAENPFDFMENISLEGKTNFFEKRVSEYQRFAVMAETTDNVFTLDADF
Put plainly: SEC. For orientation: Size exclusion chromatography separates by hydrodynamic size, large species first.

Results on one molecule are retold here after paper PMC2917093 (Biochemistry, 2009).

“And” between values parts separate entries of the source, which are not always exact repeats. Identical values can stand only once.

B1: human ribonucleotide reductase large subunit α (enzyme, UniProt P23921 1-792, looked up)
chain: MHVIKRDGRQERVMFDKITSRIQKLCYGLNMDFVDPAQITMKVIQGLYSGVTTVELDTLAAETAATLTTKHPDYAILAARIAVSNLHKETKKVFSDVMEDLYNYINPHNGKHSPMVAKSTLDIVLANKDRLNSAIIYDRDFSYNYFGFKTLERSYLLKINGKVAERPQHMLMRVSVGIHKEDIDAAIETYNLLSERWFTHASPTLFNAGTNRPQLSSCFLLSMKDDSIEGIYDTLKQCALISKSAGGIGVAVSCIRATGSYIAGTNGNSNGLVPMLRVYNNTARYVDQGGNKRPGAFAIYLEPWHLDIFEFLDLKKNTGKEEQRARDLFFALWIPDLFMKRVETNQDWSLMCPNECPGLDEVWGEEFEKLYASYEKQGRVRKVVKAQQLWYAIIESQTETGTPYMLYKDSCNRKSNQQNLGTIKCSNLCTEIVEYTSKDEVAVCNLASLALNMYVTSEHTYDFKKLAEVTKVVVRNLNKIIDINYYPVPEACLSNKRHRPIGIGVQGLADAFILMRYPFESAEAQLLNKQIFETIYYGALEASCDLAKEQGPYETYEGSPVSKGILQYDMWNVTPTDLWDWKVLKEKIAKYGIRNSLLIAPMPTASTAQILGNNESIEPYTSNIYTRRVLSGEFQIVNPHLLKDLTERGLWHEEMKNQIIACNGSIQSIPEIPDDLKQLYKTVWEISQKTVLKMAAERGAFIDQSQSLNIHIAEPNYGKLTSMHFYGWKQGLKTGMYYLRTRPAANPIQFTLNKEKLKDKEKVSKEEEEKERNTAAMVCSLENRDECLMCGS
Consider B1, for which the “stoichiometry N” value is 1.2 α:β' and 1 α:β' and 1.06 α:β'.
